From publication PMC12861479, “SlERF.D2-mediated antagonism between ethylene and ABA signaling pathways modulates osmotic stress adaptation in tomato”

What was measured:
Test in all cases: EMSA; not stated; EMSA performed as in a previous study (ref 68)
[1] = molecular target: T1, MBP-SlEIL3 (Solanum lycopersicum (tomato), UniProt Q94FV2 1-601); conditions: protein: recombinant; tags: MBP (pMAL-c5G); chain copies: 2; label: 5' biotin; blunt
T1 sequence: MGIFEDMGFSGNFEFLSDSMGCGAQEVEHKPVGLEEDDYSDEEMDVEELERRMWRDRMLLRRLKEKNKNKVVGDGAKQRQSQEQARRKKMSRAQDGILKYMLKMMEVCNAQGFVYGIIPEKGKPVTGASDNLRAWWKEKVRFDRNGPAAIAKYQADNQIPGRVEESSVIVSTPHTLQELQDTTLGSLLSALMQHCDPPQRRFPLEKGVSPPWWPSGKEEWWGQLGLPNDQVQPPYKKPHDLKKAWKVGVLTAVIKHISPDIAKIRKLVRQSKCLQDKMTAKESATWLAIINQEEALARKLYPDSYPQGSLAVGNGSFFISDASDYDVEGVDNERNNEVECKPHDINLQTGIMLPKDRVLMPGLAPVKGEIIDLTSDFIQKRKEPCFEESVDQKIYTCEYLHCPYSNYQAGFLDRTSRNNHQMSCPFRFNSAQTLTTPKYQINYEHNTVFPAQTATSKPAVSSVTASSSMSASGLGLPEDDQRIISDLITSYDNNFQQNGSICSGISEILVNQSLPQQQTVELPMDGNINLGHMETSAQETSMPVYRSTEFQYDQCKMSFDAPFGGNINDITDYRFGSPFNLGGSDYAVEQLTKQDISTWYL

[2] = molecular target: T2, MBP-SlEIL2 (Solanum lycopersicum (tomato), UniProt Q94FV3 1-614); conditions: protein: recombinant; tags: MBP (pMAL-c5G); chain copies: 2; label: 5' biotin; blunt
T2 sequence: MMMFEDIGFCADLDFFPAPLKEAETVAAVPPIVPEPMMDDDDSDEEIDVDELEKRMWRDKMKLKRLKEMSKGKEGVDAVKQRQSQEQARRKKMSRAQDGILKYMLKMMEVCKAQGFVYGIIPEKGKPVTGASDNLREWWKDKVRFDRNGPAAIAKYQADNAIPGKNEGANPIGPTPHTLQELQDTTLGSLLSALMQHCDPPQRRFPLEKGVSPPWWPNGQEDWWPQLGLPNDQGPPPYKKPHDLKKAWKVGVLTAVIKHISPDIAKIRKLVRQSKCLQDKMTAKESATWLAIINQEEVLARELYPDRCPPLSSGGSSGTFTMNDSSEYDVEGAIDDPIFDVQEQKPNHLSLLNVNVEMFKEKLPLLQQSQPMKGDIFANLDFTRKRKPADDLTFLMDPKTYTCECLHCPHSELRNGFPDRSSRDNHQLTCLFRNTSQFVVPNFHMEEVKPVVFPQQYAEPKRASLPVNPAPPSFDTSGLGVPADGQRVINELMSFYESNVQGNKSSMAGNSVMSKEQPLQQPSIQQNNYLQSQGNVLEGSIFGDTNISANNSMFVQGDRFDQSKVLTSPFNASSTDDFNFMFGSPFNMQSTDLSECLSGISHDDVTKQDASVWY

[3] = molecular target: T3, MBP-SlEIL1 (Solanum lycopersicum (tomato), UniProt Q94FV4 1-610); conditions: protein: recombinant; tags: MBP (pMAL-c5G); chain copies: 2; label: 5' biotin; blunt
T3 sequence: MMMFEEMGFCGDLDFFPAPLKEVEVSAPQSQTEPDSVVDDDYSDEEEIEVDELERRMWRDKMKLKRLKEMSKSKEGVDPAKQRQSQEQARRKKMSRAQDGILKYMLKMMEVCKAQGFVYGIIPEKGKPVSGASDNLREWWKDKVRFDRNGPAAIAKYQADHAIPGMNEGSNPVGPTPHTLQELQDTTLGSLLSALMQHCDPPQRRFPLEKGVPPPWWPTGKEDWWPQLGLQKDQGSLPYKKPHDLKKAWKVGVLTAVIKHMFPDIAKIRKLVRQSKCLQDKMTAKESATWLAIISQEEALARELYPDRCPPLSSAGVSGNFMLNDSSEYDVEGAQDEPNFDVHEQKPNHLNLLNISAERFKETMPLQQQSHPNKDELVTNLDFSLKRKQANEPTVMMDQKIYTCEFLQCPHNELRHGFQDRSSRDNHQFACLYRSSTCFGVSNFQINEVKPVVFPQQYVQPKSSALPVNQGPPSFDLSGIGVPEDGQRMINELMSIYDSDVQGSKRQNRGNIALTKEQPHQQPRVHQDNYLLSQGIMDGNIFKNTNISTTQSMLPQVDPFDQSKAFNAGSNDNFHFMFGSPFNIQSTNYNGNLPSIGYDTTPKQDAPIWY

[4] = molecular target: MBP-SlEIL4 (Solanum lycopersicum (tomato), UniProt A0A3Q7GZH0 1-605); conditions: protein: recombinant; tags: MBP (pMAL-c5G); label: 5' biotin; blunt

Measured: binding result

B1: SlERF.D2 promoter EBS probe WT (dsDNA)
DNA 1: GTTATAACAGACATACATGCGCTAATATCG
DNA 2: CGATATTAGCGCATGTATGTCTGTTATAAC
binds: [1] | [2] | [3] | [4]
